From paper PMC4844016 (ACS chemical neuroscience, 2015)

Assays:
[1] = Ion mobility-mass spectrometry, oligomer distributions; assay type: physicochemical; conditions: IM-MS, 10 μM peptide in 10 mM ammonium acetate, pH 7.4
[2] = tested on: differentiated PC12 cells; test: MTT assay; assay type: cell-based; conditions: NGF-differentiated PC12 cells, 10 µM freshly prepared peptide, 24 h, 37°C; normalized to media control; three independent experiments, 6 wells
[3] = Oligomerization by PICUP and SDS-PAGE; assay type: physicochemical; conditions: 25–35 μM peptide, cross-linked, SDS-PAGE, silver staining
[4] = Thermodynamics of fibril formation; assay type: physicochemical; conditions: ΔG^0 = −RT ln (1/Cr); 20 μM, 37°C, 21 days without shaking; four independent experiments
[5] = Quasielastic light scattering spectroscopy; assay type: physicochemical; conditions: QLS
[6] = Bis-ANS fluorescence, exposure of hydrophobic surfaces; assay type: physicochemical; conditions: 20 µM peptide incubated at 37°C, shaking
Thioflavin T = assay type: physicochemical; conditions: 20 µM peptide, 40 µM ThT, pH 7.5, 37°C, shaking
[7] = Electron microscopy of assembly morphology; assay type: physicochemical; conditions: EM
[8] = tested on: SH-SY5Y neuroblastoma cells; test: Apoptosis assay, Annexin V-FITC staining; assay type: cell-based; conditions: SHSY-5Y cells, 1 μM, data not shown

Amyloid β−protein (1–42) [Aβ42]
oligomers assigned in ATD of z/n = −5/2 peak [1]: dimer, tetramer, hexamer, and dodecamer | decrease in MTT metabolism [2]: ≈ 23% | oligomer size distribution by PICUP [3]: prominent node of band intensity at pentamer-hexamer | ΔG^0 of fibril formation [4]: −8.45 (0.12) kcal/mole | RH of small particles, initial distribution ([5]; 0.5 h of incubation): 8–10 nm | RH of larger particles also observed, initial distribution ([5]; 0.5 h of incubation, relatively few particles): 100–1000 nm | RH of oligomers remaining after 24 h ([5]; 24 h of incubation): 8–10 nm | maximal RH after 24 h ([5]; 24 h of incubation): > 1000 nm | time of peak Bis-ANS fluorescence [6]: 4 h | time ThT fluorescence remained constant (lag) (Thioflavin T): ≈ 1 h | globules, size range, Day 0 ([7]; 37°C with shaking, day 0, Image J): 11–23 nm | long fibrils, size range, Day 7 ([7]; 37°C with shaking, day 7): 9–21 nm | short fibrils, assembly length, Day 7 ([7]; 37°C with shaking, day 7, value in parentheses): 56–303 nm | annuli, inside diameter, Day 0 ([7]; day 0): 4–11 nm | annuli, outside diameter, Day 0 ([7]; day 0): 13–25 nm

CN[C@@H]1C[C@H]2O[C@@](C)([C@@H]1OC)n1c3ccccc3c3c4c(c5c6ccccc6n2c5c31)C(=O)NC4 [staurosporine]
effect of positive control on cells [8]: complete disruption of membrane integrity
